Assay results taken from the supplement of paper PMC7125110.
± gives the standard error. For some assays here: Variants at the floor of the assay were thinned out.

B1: glmS ribozyme (parent)
chain: AUAAAAGCGCCAGAACUACAGAAAUGUAGUUGACGAGGAGGAGGUUUAUCGAAUUUUCGGCGGAUGCCUCCAAA

Legend:
Details in all cases: with glucosamine-6-phosphate
glucosamine-6-phosphate [1] = variants of: B1; assay: kcat; higher = faster cleavage; RNA array
Method in brief: (§1)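 Barcoded ribozyme variants were transcribed in situ on sequenced MiSeq chips by E. coli RNA polymerase. At 37 °C, a hybridised Cy3 probe tracked them while glucosamine-6-phosphate (40 μM to 10 mM) in HEPES/KCl/Mg(OAc)2 buffer flowed in and tiles were imaged over ~14 h. Per-tile medians of signals normalised to baseline and to non-cleaving reference variants were fit to one- or two-exponential decays, giving kobs. kcat and KM came from weighted Michaelis–Menten fits across concentrations.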

glucosamine-6-phosphate [2] = variants of: B1; assay: self-cleavage kobs at 640 uM GlcN6P; higher = faster cleavage; RNA array
Method in brief: as §1

glucosamine-6-phosphate [3] = variants of: B1; assay: self-cleavage kobs at 2500 uM GlcN6P; higher = faster cleavage; RNA array
Method in brief: as §1

glucosamine-6-phosphate [4] = variants of: B1; assay: self-cleavage kobs at 10000 uM GlcN6P; higher = faster cleavage; RNA array
Method in brief: as §1

glucosamine-6-phosphate [5] = variants of: B1; assay: KM; higher = weaker cofactor use; RNA array
Method in brief: as §1

glucosamine-6-phosphate [6] = variants of: B1; assay: self-cleavage kobs at 160 uM GlcN6P; higher = faster cleavage; RNA array
Method in brief: as §1

glucosamine-6-phosphate [7] = variants of: B1; assay: self-cleavage kobs at 40 uM GlcN6P; higher = faster cleavage; RNA array
Method in brief: as §1

Row | Variant | kcat (glucosamine-6-phosphate [1]) [s⁻¹] | self-cleavage kobs at 640 uM GlcN6P (glucosamine-6-phosphate [2]) [s⁻¹] | self-cleavage kobs at 2500 uM GlcN6P (glucosamine-6-phosphate [3]) [s⁻¹] | self-cleavage kobs at 10000 uM GlcN6P (glucosamine-6-phosphate [4]) [s⁻¹] | KM (glucosamine-6-phosphate [5]) [µM] | self-cleavage kobs at 160 uM GlcN6P (glucosamine-6-phosphate [6]) [s⁻¹] | self-cleavage kobs at 40 uM GlcN6P (glucosamine-6-phosphate [7]) [s⁻¹]
1 | C16A A53U | 0.00183 ± 0.0008 | 0.000241 ± 6.3e-05 | 0.00116 ± 0.00029 | 0.00118 ± 0.00035 |  |  | 
2 | A15C U45G | 0.000779 ± 0.00013 | 0.000218 ± 2.9e-05 | 0.000568 ± 8.2e-05 | 0.000562 ± 0.00014 | 1570 ± 400 | 7.06e-05 ± 1.5e-05 | 
3 | A14U U45C | 0.000739 ± 0.00014 | 0.000105 ± 1.9e-05 | 0.000436 ± 6.7e-05 | 0.000531 ± 6e-05 | 3320 ± 1200 |  | 
4 | A14U U45G | 0.00111 ± 0.00014 | 0.00033 ± 5.4e-05 | 0.000633 ± 0.00013 | 0.000917 ± 0.00013 | 1850 ± 400 | 8.17e-05 ± 2.1e-05 | 
5 | A15U U69C | 0.000652 ± 0.00018 | 0.000203 ± 2.7e-05 | 0.000443 ± 7.7e-05 | 0.000677 ± 0.00011 | 1120 ± 510 | 8.72e-05 ± 1.3e-05 | 5.12e-05 ± 1.2e-05
6 | C16A A39G | 0.00326 ± 0.00026 | 0.000731 ± 0.00012 | 0.00177 ± 0.00034 | 0.00273 ± 0.00053 | 2130 ± 240 | 0.000212 ± 5.3e-05 | 6.75e-05 ± 1.4e-05
7 | C16A A39C | 0.000305 ± 1.9e-05 | 3.69e-05 ± 1.3e-05 | 0.000114 ± 1.5e-05 | 0.00021 ± 2.9e-05 | 4340 ± 490 |  | 
8 | C16A A39U | 0.00123 ± 0.00017 | 0.000287 ± 2.3e-05 | 0.000654 ± 5.7e-05 | 0.000937 ± 9e-05 | 2410 ± 520 | 6.24e-05 ± 9.4e-06 | 
9 | A15G A48U | 0.000853 ± 8.9e-05 | 0.000113 ± 1.4e-05 | 0.000349 ± 4.7e-05 | 0.000604 ± 8.6e-05 | 3930 ± 590 | 3.92e-05 ± 9.3e-06 | 
10 | A15U U30A | 0.0245 ± 0.006 | 0.0102 ± 0.0044 |  | 0.0272 ± 0.0062 | 377 ± 130 |  | 0.00246 ± 0.0004
11 | A15G C68G | 0.000113 ± 3e-06 | 7.26e-05 ± 1.2e-05 | 9.45e-05 ± 1.6e-05 | 0.000113 ± 1.7e-05 | 367 ± 35 | 3.48e-05 ± 1.2e-05 | 
12 | A14U G37A | 0.000902 ± 0.00022 | 0.00012 ± 1.5e-05 | 0.00043 ± 5.9e-05 | 0.000648 ± 7.7e-05 | 3590 ± 1400 | 6.22e-05 ± 1.3e-05 | 
13 | A15U G29U | 0.00358 ± 0.0016 |  | 0.0014 ± 0.00028 | 0.00431 ± 0.00044 |  | 0.000217 ± 7.1e-05 | 0.000116 ± 1.1e-05
